Measurements from patent publication US11499162B2, “Plants having increased tolerance to herbicides” (BASF SE, priority 2016, dated 2022).

B1: Q96N: mutated TriA variant of SEQ ID NO: 2 (protein)
chain: MQTLSIQHGTLVTMDQYRRVLGDSWVHVQDGRIVALGVHAESVPPPADRVIDARGKVVLPGFINAHTHVNQILLRGGPSHGRQLYDWLFNVLYPGNKAMRPEDVAVAVRLYCAEAVRSGITTINDNADSAIYPGNIEAAMAVYGEVGVRVVYARMFFDRMDGRIQGYVDALKARSPQVELCSIMEETAVAKDRITALSDQYHGTAGGRISVWPAPAITPAVTVEGMRWAQAFARDRAVMWTLHMAESDHDERLHWMSPAEYMECYGLLDERLQVAHCVYFDRKDVRLLHRHNVKVASQVVSNAYLGSGVAPVPEMVERGMAVGIGTDDGNCNDSVNMIGDMKFMAHIHRAVHRDADVLTPEKILEMATIDGARSLGMDHEIGSIETGKRADLILLDLRHPQTTPHHHLAATIVFQAYGNEVDTVLIDGNVVMENRRLSFLPPERELAFLEEAQSRATAILQRANMVANPAWRSL
modifications: Pseudomonas
B2: N126D: mutated TriA variant of SEQ ID NO: 2 (protein)
chain: MQTLSIQHGTLVTMDQYRRVLGDSWVHVQDGRIVALGVHAESVPPPADRVIDARGKVVLPGFINAHTHVNQILLRGGPSHGRQLYDWLFNVLYPGQKAMRPEDVAVAVRLYCAEAVRSGITTINDDADSAIYPGNIEAAMAVYGEVGVRVVYARMFFDRMDGRIQGYVDALKARSPQVELCSIMEETAVAKDRITALSDQYHGTAGGRISVWPAPAITPAVTVEGMRWAQAFARDRAVMWTLHMAESDHDERLHWMSPAEYMECYGLLDERLQVAHCVYFDRKDVRLLHRHNVKVASQVVSNAYLGSGVAPVPEMVERGMAVGIGTDDGNCNDSVNMIGDMKFMAHIHRAVHRDADVLTPEKILEMATIDGARSLGMDHEIGSIETGKRADLILLDLRHPQTTPHHHLAATIVFQAYGNEVDTVLIDGNVVMENRRLSFLPPERELAFLEEAQSRATAILQRANMVANPAWRSL
modifications: Pseudomonas
B3: M155G: mutated TriA variant of SEQ ID NO: 2 (protein)
chain: MQTLSIQHGTLVTMDQYRRVLGDSWVHVQDGRIVALGVHAESVPPPADRVIDARGKVVLPGFINAHTHVNQILLRGGPSHGRQLYDWLFNVLYPGQKAMRPEDVAVAVRLYCAEAVRSGITTINDNADSAIYPGNIEAAMAVYGEVGVRVVYARGFFDRMDGRIQGYVDALKARSPQVELCSIMEETAVAKDRITALSDQYHGTAGGRISVWPAPAITPAVTVEGMRWAQAFARDRAVMWTLHMAESDHDERLHWMSPAEYMECYGLLDERLQVAHCVYFDRKDVRLLHRHNVKVASQVVSNAYLGSGVAPVPEMVERGMAVGIGTDDGNCNDSVNMIGDMKFMAHIHRAVHRDADVLTPEKILEMATIDGARSLGMDHEIGSIETGKRADLILLDLRHPQTTPHHHLAATIVFQAYGNEVDTVLIDGNVVMENRRLSFLPPERELAFLEEAQSRATAILQRANMVANPAWRSL
modifications: Pseudomonas
B4: N126M: mutated TriA variant of SEQ ID NO: 2 (protein)
chain: MQTLSIQHGTLVTMDQYRRVLGDSWVHVQDGRIVALGVHAESVPPPADRVIDARGKVVLPGFINAHTHVNQILLRGGPSHGRQLYDWLFNVLYPGQKAMRPEDVAVAVRLYCAEAVRSGITTINDMADSAIYPGNIEAAMAVYGEVGVRVVYARMFFDRMDGRIQGYVDALKARSPQVELCSIMEETAVAKDRITALSDQYHGTAGGRISVWPAPAITPAVTVEGMRWAQAFARDRAVMWTLHMAESDHDERLHWMSPAEYMECYGLLDERLQVAHCVYFDRKDVRLLHRHNVKVASQVVSNAYLGSGVAPVPEMVERGMAVGIGTDDGNCNDSVNMIGDMKFMAHIHRAVHRDADVLTPEKILEMATIDGARSLGMDHEIGSIETGKRADLILLDLRHPQTTPHHHLAATIVFQAYGNEVDTVLIDGNVVMENRRLSFLPPERELAFLEEAQSRATAILQRANMVANPAWRSL
modifications: Pseudomonas
B5: D128S: mutated TriA variant of SEQ ID NO: 2 (protein)
chain: MQTLSIQHGTLVTMDQYRRVLGDSWVHVQDGRIVALGVHAESVPPPADRVIDARGKVVLPGFINAHTHVNQILLRGGPSHGRQLYDWLFNVLYPGQKAMRPEDVAVAVRLYCAEAVRSGITTINDNASSAIYPGNIEAAMAVYGEVGVRVVYARMFFDRMDGRIQGYVDALKARSPQVELCSIMEETAVAKDRITALSDQYHGTAGGRISVWPAPAITPAVTVEGMRWAQAFARDRAVMWTLHMAESDHDERLHWMSPAEYMECYGLLDERLQVAHCVYFDRKDVRLLHRHNVKVASQVVSNAYLGSGVAPVPEMVERGMAVGIGTDDGNCNDSVNMIGDMKFMAHIHRAVHRDADVLTPEKILEMATIDGARSLGMDHEIGSIETGKRADLILLDLRHPQTTPHHHLAATIVFQAYGNEVDTVLIDGNVVMENRRLSFLPPERELAFLEEAQSRATAILQRANMVANPAWRSL
modifications: Pseudomonas
B6: N126S: mutated TriA variant of SEQ ID NO: 2 (protein)
chain: MQTLSIQHGTLVTMDQYRRVLGDSWVHVQDGRIVALGVHAESVPPPADRVIDARGKVVLPGFINAHTHVNQILLRGGPSHGRQLYDWLFNVLYPGQKAMRPEDVAVAVRLYCAEAVRSGITTINDSADSAIYPGNIEAAMAVYGEVGVRVVYARMFFDRMDGRIQGYVDALKARSPQVELCSIMEETAVAKDRITALSDQYHGTAGGRISVWPAPAITPAVTVEGMRWAQAFARDRAVMWTLHMAESDHDERLHWMSPAEYMECYGLLDERLQVAHCVYFDRKDVRLLHRHNVKVASQVVSNAYLGSGVAPVPEMVERGMAVGIGTDDGNCNDSVNMIGDMKFMAHIHRAVHRDADVLTPEKILEMATIDGARSLGMDHEIGSIETGKRADLILLDLRHPQTTPHHHLAATIVFQAYGNEVDTVLIDGNVVMENRRLSFLPPERELAFLEEAQSRATAILQRANMVANPAWRSL
modifications: Pseudomonas
B7: N126A: mutated TriA variant of SEQ ID NO: 2 (protein)
chain: MQTLSIQHGTLVTMDQYRRVLGDSWVHVQDGRIVALGVHAESVPPPADRVIDARGKVVLPGFINAHTHVNQILLRGGPSHGRQLYDWLFNVLYPGQKAMRPEDVAVAVRLYCAEAVRSGITTINDAADSAIYPGNIEAAMAVYGEVGVRVVYARMFFDRMDGRIQGYVDALKARSPQVELCSIMEETAVAKDRITALSDQYHGTAGGRISVWPAPAITPAVTVEGMRWAQAFARDRAVMWTLHMAESDHDERLHWMSPAEYMECYGLLDERLQVAHCVYFDRKDVRLLHRHNVKVASQVVSNAYLGSGVAPVPEMVERGMAVGIGTDDGNCNDSVNMIGDMKFMAHIHRAVHRDADVLTPEKILEMATIDGARSLGMDHEIGSIETGKRADLILLDLRHPQTTPHHHLAATIVFQAYGNEVDTVLIDGNVVMENRRLSFLPPERELAFLEEAQSRATAILQRANMVANPAWRSL
modifications: Pseudomonas
B8: D128N: mutated TriA variant of SEQ ID NO: 2 (protein)
chain: MQTLSIQHGTLVTMDQYRRVLGDSWVHVQDGRIVALGVHAESVPPPADRVIDARGKVVLPGFINAHTHVNQILLRGGPSHGRQLYDWLFNVLYPGQKAMRPEDVAVAVRLYCAEAVRSGITTINDNANSAIYPGNIEAAMAVYGEVGVRVVYARMFFDRMDGRIQGYVDALKARSPQVELCSIMEETAVAKDRITALSDQYHGTAGGRISVWPAPAITPAVTVEGMRWAQAFARDRAVMWTLHMAESDHDERLHWMSPAEYMECYGLLDERLQVAHCVYFDRKDVRLLHRHNVKVASQVVSNAYLGSGVAPVPEMVERGMAVGIGTDDGNCNDSVNMIGDMKFMAHIHRAVHRDADVLTPEKILEMATIDGARSLGMDHEIGSIETGKRADLILLDLRHPQTTPHHHLAATIVFQAYGNEVDTVLIDGNVVMENRRLSFLPPERELAFLEEAQSRATAILQRANMVANPAWRSL
modifications: Pseudomonas
B9: D128A: mutated TriA variant of SEQ ID NO: 2 (protein)
chain: MQTLSIQHGTLVTMDQYRRVLGDSWVHVQDGRIVALGVHAESVPPPADRVIDARGKVVLPGFINAHTHVNQILLRGGPSHGRQLYDWLFNVLYPGQKAMRPEDVAVAVRLYCAEAVRSGITTINDNAASAIYPGNIEAAMAVYGEVGVRVVYARMFFDRMDGRIQGYVDALKARSPQVELCSIMEETAVAKDRITALSDQYHGTAGGRISVWPAPAITPAVTVEGMRWAQAFARDRAVMWTLHMAESDHDERLHWMSPAEYMECYGLLDERLQVAHCVYFDRKDVRLLHRHNVKVASQVVSNAYLGSGVAPVPEMVERGMAVGIGTDDGNCNDSVNMIGDMKFMAHIHRAVHRDADVLTPEKILEMATIDGARSLGMDHEIGSIETGKRADLILLDLRHPQTTPHHHLAATIVFQAYGNEVDTVLIDGNVVMENRRLSFLPPERELAFLEEAQSRATAILQRANMVANPAWRSL
modifications: Pseudomonas
B10: M155A: mutated TriA variant of SEQ ID NO: 2 (protein)
chain: MQTLSIQHGTLVTMDQYRRVLGDSWVHVQDGRIVALGVHAESVPPPADRVIDARGKVVLPGFINAHTHVNQILLRGGPSHGRQLYDWLFNVLYPGQKAMRPEDVAVAVRLYCAEAVRSGITTINDNADSAIYPGNIEAAMAVYGEVGVRVVYARAFFDRMDGRIQGYVDALKARSPQVELCSIMEETAVAKDRITALSDQYHGTAGGRISVWPAPAITPAVTVEGMRWAQAFARDRAVMWTLHMAESDHDERLHWMSPAEYMECYGLLDERLQVAHCVYFDRKDVRLLHRHNVKVASQVVSNAYLGSGVAPVPEMVERGMAVGIGTDDGNCNDSVNMIGDMKFMAHIHRAVHRDADVLTPEKILEMATIDGARSLGMDHEIGSIETGKRADLILLDLRHPQTTPHHHLAATIVFQAYGNEVDTVLIDGNVVMENRRLSFLPPERELAFLEEAQSRATAILQRANMVANPAWRSL
modifications: Pseudomonas

Assay type: biochemical
Details: pH 7.2
How it was run: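 TriA variants, N-His-tagged, were expressed in E. coli BL21(DE3) Gold with groEL/groES chaperones and purified by Ni-IDA affinity. Enzyme in 25 mM sodium phosphate pH 7.2 was incubated with azine substrates at 1 nM to 10 nM, 30° C. Products were identified by UPLC-HR-MS.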

Compared with B1, B2 is lower in “Degradation in % of 6-cyclopentyl-N4-(2,3,4,5,6-pentafluorophenyl)-1,3,5-triazine-2,4-diamine” value: 2% for the first, 0% for the second.

B3 and B4 are the same in “Degradation in % of 6-cyclopentyl-N4-(2,3,4,5,6-pentafluorophenyl)-1,3,5-triazine-2,4-diamine” value: 0% for the first, 0% for the second.

First: B5
Second: B6
The “Degradation in % of 6-cyclopentyl-N4-(2,3,4,5,6-pentafluorophenyl)-1,3,5-triazine-2,4-diamine” value of the first is lower: 0% for the first, 1% for the second.

Going from B7 to B8, the “Degradation in % of 6-cyclopentyl-N4-(2,3,4,5,6-pentafluorophenyl)-1,3,5-triazine-2,4-diamine” value falls from 4% to 2%.

Going from B9 to B10, the “Degradation in % of 6-cyclopentyl-N4-(2,3,4,5,6-pentafluorophenyl)-1,3,5-triazine-2,4-diamine” value falls from 5% to 4%.

Compared with B1, B2 is lower in “Degradation in % of Melamine” value: 2% for the first, 0% for the second.

Compared with B3, B4 is lower in “Degradation in % of Melamine” value: 4% for the first, 3% for the second.

Going from B5 to B6, the “Degradation in % of Melamine” value rises from 0% to 2%.

First: B7
Second: B8
The “Degradation in % of Melamine” value of the first is higher: 2% for the first, 0% for the second.

Compared with B9, B10 is lower in “Degradation in % of Melamine” value: 3% for the first, 0% for the second.
